Assay results as given in patent US20180216194A1.

How the values were obtained:
Experiment in all cases: Bio-Plex bead immunoassay, multiplexed beads, single antigen, single detection antibody
[1] = biological target: recombinant MIC-1 protein (R&D Systems DuoSet Cat. # DY957) (human) (UniProt Q99988)
[2] = biological target: recombinant SPON1 protein (R&D Systems Cat. # 3135-SP/CF) (Homo sapiens (Human)) (UniProt Q9HCB6)
[3] = biological target: recombinant OPN protein (R&D Systems Cat. # 1433-OP-050) (Homo sapiens (Human)) (UniProt P10451)
[4] = biological target: recombinant MIA protein (R&D Systems DuoSet Cat. # DY2050) (human) (UniProt Q16674)
[5] = biological target: recombinant HSP27 protein (R&D Systems DuoSet Cat. # DY1580) (human) (UniProt P04792)
[6] = biological target: recombinant CEACAM-1 protein (R&D Systems DuoSet Cat. # DY2244) (human) (UniProt P13688)
Sequence of UniProt P13688 (P13688 35-428 limits assumed): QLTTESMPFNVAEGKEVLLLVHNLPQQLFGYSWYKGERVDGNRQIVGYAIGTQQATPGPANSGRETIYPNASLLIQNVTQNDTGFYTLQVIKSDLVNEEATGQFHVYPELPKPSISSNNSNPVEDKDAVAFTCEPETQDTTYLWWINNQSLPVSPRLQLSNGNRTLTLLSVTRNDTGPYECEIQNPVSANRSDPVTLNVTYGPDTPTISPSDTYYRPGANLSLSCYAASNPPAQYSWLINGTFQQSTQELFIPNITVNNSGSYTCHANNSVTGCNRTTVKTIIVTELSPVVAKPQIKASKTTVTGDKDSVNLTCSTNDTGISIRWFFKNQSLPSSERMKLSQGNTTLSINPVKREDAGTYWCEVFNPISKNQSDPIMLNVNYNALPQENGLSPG

Sequence of UniProt Q99988 (Q99988 197-308 limits assumed): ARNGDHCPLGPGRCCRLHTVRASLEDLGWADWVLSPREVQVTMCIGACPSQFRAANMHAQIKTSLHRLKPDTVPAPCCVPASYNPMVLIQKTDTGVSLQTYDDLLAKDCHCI
Sequence of UniProt P04792 (P04792 whole entry): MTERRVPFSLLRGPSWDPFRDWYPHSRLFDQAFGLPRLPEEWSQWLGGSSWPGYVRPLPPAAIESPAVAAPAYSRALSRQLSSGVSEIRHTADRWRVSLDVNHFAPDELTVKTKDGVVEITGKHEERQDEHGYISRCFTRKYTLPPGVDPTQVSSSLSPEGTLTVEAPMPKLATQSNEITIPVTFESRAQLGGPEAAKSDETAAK
Sequence of UniProt Q16674 (Q16674 25-131 limits assumed): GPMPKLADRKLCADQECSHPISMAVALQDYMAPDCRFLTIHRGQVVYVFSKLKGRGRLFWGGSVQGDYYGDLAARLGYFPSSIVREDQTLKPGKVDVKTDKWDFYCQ
Sequence of UniProt Q9HCB6 (Q9HCB6 29-807 limits assumed): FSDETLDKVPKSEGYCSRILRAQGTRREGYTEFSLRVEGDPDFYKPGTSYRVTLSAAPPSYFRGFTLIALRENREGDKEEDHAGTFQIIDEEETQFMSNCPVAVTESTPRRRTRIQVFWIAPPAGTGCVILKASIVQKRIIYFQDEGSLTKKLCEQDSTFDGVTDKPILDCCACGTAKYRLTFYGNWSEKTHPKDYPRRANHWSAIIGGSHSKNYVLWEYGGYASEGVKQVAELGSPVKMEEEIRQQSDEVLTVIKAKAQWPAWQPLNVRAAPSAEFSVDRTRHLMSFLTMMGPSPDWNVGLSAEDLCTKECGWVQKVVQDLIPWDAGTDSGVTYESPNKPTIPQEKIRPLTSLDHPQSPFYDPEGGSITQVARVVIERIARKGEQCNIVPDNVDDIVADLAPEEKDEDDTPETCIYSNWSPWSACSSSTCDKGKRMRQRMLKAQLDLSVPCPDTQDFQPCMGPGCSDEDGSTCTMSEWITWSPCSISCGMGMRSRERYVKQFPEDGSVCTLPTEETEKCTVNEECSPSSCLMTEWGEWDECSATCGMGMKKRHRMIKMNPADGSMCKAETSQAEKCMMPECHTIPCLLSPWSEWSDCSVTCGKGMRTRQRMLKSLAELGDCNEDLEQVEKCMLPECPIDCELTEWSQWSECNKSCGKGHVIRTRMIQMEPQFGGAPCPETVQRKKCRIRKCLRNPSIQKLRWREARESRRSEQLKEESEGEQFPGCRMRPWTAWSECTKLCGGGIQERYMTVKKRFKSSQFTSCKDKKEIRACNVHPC
Sequence of UniProt P10451 (P10451 other isoform, or with tags, fused parts or gaps limits assumed): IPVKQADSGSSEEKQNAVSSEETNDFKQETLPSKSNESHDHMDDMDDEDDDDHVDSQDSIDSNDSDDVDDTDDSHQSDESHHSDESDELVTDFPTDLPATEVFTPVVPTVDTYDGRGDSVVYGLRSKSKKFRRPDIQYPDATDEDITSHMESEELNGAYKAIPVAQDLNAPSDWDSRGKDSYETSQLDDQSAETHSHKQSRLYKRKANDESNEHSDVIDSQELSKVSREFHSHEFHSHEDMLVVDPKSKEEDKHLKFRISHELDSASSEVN

| % cross-reactivity (single-detection antibody) [1] [%] | % cross-reactivity (single-detection antibody) [2] [%] | % cross-reactivity (single-detection antibody) [3] [%] | % cross-reactivity (single-detection antibody) [4] [%] | % cross-reactivity (single-detection antibody) [5] [%] | % cross-reactivity (single-detection antibody) [6] [%] | Substance |
| --- | --- | --- | --- | --- | --- | --- |
| 0 | 0 | 0 | 0.2 | 0 | – | CEACAM-1 capture antibody (R&D Systems DuoSet Cat. # DY2244, mouse) |
| 0 | 0 | – | 0 | 0 | 0 | OPN capture antibody (R&D Systems Cat. # MAB14332, mouse) |
| 0.1 | 0.3 | 0.3 | – | 0.1 | 0.4 | MIA capture antibody (R&D Systems DuoSet Cat. # DY2050, mouse) |
| – | 0 | 0 | 0 | 0 | 0 | MIC-1 capture antibody (R&D Systems DuoSet Cat. # DY957, mouse) |
